Our source for the IC50 and Kd values is the Immune Epitope Database (IEDB).

pIC50, pKd: −log10 of the molar value. Where only a bound is given, the exact number is not on record here.

In one test the target is HLA-A*24:02. Put plainly: IEDB peptide-MHC binding, purified MHC/competitive/fluorescence; ≥ and ≤ were set here for values at or beyond the usual limits of such assays. The following applies: source organism: Zaire ebolavirus.
In a further test the target is HLA-A*11:01. Described as above. The following applies: source organism: Zaire ebolavirus.
The target in test [1] is HLA-A*03:01. The test is described as above. To be noted: source organism: Zaire ebolavirus.
In test [2] the target is HLA-A*24:03. Nature of the test: IEDB peptide-MHC binding, purified MHC/competitive/fluorescence; filed as Kd, often an IC50 or EC50 that approximates it; ≥ and ≤ were set here for values at or beyond the usual limits of such assays.
Test [3] deals with HLA-B*15:01. The test is described as above.
The target in a further test is HLA-B*51:01. The description is as above.
The next test has as its target HLA-A*69:01. The description is as above. To be noted: source organism: Zaire ebolavirus.
A further test concerns the target HLA-B*57:01. The description is as above.
In another test the target is HLA-B*18:01. The description is as above.
The target of another test is HLA-A*31:01. Described as above. To be noted: source organism: Zaire ebolavirus.
The next test addresses HLA-B*46:01. The test is described as above.
The next test addresses HLA-B*27:03. The description is as above.
The next test addresses HLA-B*39:01. The description is as above.
The next test has as its target HLA-B*15:17. Described as above. The following applies: source organism: Zaire ebolavirus.
Test [4] concerns the target HLA-A*02:01. The description is as above.
The target in test [5] is HLA-A*26:01. The test is described as above.
For test [6], the target named is HLA-A*24:03. Nature of the test: IEDB peptide-MHC binding, purified MHC/direct/fluorescence; filed as Kd, often an IC50 or EC50 that approximates it; ≥ and ≤ were set here for values at or beyond the usual limits of such assays. To be noted: source organism: Zaire ebolavirus.
The target in a further test is HLA-A*02:03. Described as above. To be noted: source organism: Zaire ebolavirus.
Another test addresses HLA-A*68:02. Described as above. The following applies: source organism: Zaire ebolavirus.
The target in another test is HLA-A*02:16. The test is described as above. To be noted: source organism: Zaire ebolavirus.
A further test addresses HLA-A*29:02. The description is as above. The following applies: source organism: Zaire ebolavirus.
A further test addresses HLA-A*02:11. Described as above. To be noted: source organism: Zaire ebolavirus.
The target of test [7] is HLA-A*02:12. The description is as above. To be noted: source organism: Zaire ebolavirus.
For test [8], the target named is HLA-A*03:01. Described as above.
A further test addresses HLA-A*02:19. The description is as above. The following applies: source organism: Zaire ebolavirus.
Test [9] addresses HLA-A*02:01. Put plainly: IEDB peptide-MHC binding, purified MHC/competitive/fluorescence; ≥ and ≤ were set here for values at or beyond the usual limits of such assays. The following applies: source organism: Zaire ebolavirus.
The target in another test is HLA-B*08:01. The test is described as above. To be noted: source organism: Zaire ebolavirus.
For test [10], the target named is HLA-B*15:01. The test is described as above. To be noted: source organism: Zaire ebolavirus.
The target of a further test is HLA-B*07:02. The description is as above. To be noted: source organism: Zaire ebolavirus.
For test [11], the target named is HLA-A*26:01. Put plainly: IEDB peptide-MHC binding, purified MHC/direct/fluorescence; filed as Kd, often an IC50 or EC50 that approximates it; ≥ and ≤ were set here for values at or beyond the usual limits of such assays. To be noted: source organism: Zaire ebolavirus.
Test [12] addresses HLA-A*02:12. Put plainly: IEDB peptide-MHC binding, purified MHC/competitive/fluorescence; filed as Kd, often an IC50 or EC50 that approximates it; ≥ and ≤ were set here for values at or beyond the usual limits of such assays. To be noted: source organism: Giardia intestinalis ATCC 50581.
The target in test [13] is HLA-A*03:01. The description is as above. To be noted: source organism: Giardia intestinalis ATCC 50581.
Where [14] appears, read: source organism: Zaire ebolavirus.
Where [15] appears, read: source organism: Giardia intestinalis ATCC 50581.

For the sequence VYRDHSEKK, the negative logarithm of the IC50 (pIC50) in the test with HLA-A*24:02 is 4.54; with HLA-A*11:01, 4.48; with HLA-A*03:01 [1], 4.60.
For the sequence LYIEFTDNM, the pKd with HLA-A*24:03 [2] (source organism: Escherichia coli 536) is at least 9.00.
For RVPTVFHKK, the pKd was at most 4.70 in the test with HLA-B*15:01 [3] (setting [14]); at most 4.70 with HLA-B*51:01 (setting [14]); at most 4.70 with HLA-A*69:01; at most 4.70 with HLA-B*57:01 (setting [14]); at most 4.70 with HLA-B*18:01 (setting [14]); 7.57 with HLA-A*31:01. For the same sequence, the negative logarithm of the Kd (pKd) with HLA-B*46:01 (setting [14]), with HLA-B*27:03 (setting [14]), with HLA-B*39:01 (setting [14]), in the test with HLA-B*15:17, with HLA-A*02:01 [4] (setting [14]) and with HLA-A*26:01 [5] (setting [14]) was at most 4.70 in each case. The pKd in the test with HLA-A*24:03 [6], in the test with HLA-A*02:03, with HLA-A*68:02, in the test with HLA-A*02:16, with HLA-A*29:02 and with HLA-A*02:11 was at most 4.70 throughout. Besides, the negative logarithm of the Kd (pKd) with HLA-A*02:12 [7] was at most 4.70; in the test with HLA-A*03:01 [8] (source organism: Sudan ebolavirus - Uganda (2000)), 6.62; in the test with HLA-A*02:19, at most 4.70.
Consider FLLMLCLHH, for which the pIC50 with HLA-A*03:01 [1] was at most 3.89; with HLA-A*02:01 [9], 4.91.
With TVIYRGTTF, the pKd is 7.27 with HLA-B*15:01 [3] (setting [14]); at most 4.70 in the test with HLA-B*51:01 (setting [14]); at most 4.70 with HLA-A*69:01; at most 4.70 with HLA-B*57:01 (setting [14]); at most 4.70 with HLA-B*18:01 (setting [14]); at most 4.70 with HLA-B*46:01 (setting [14]). The pKd with HLA-B*27:03 (setting [14]), in the test with HLA-B*39:01 (setting [14]), in the test with HLA-A*02:01 [4] (setting [14]), with HLA-A*24:03 [6], with HLA-A*02:03 and with HLA-A*68:02 was at most 4.70 in each case. The pKd was at most 4.70 in the test with HLA-A*02:16; at most 4.70 with HLA-A*29:02; at most 4.70 in the test with HLA-A*02:11; at most 4.70 with HLA-A*02:12 [7]; at most 4.70 with HLA-A*03:01 [8] (setting [14]); 6.08 with HLA-A*26:01 [11]. This sequence also had a pKd with HLA-A*02:19 of at most 4.70. In addition, the pIC50 with HLA-B*08:01 was 4.34; in the test with HLA-B*15:01 [10], 5.33; with HLA-A*24:02 it was 5.90; with HLA-B*07:02, 4.84.
Turning to GLYLYRFHV, the pKd with HLA-B*15:01 [3] (setting [15]), in the test with HLA-A*24:03 [2] (setting [15]), in the test with HLA-B*51:01 (setting [15]), with HLA-B*57:01 (setting [15]), in the test with HLA-B*18:01 (setting [15]) and in the test with HLA-B*46:01 (setting [15]) was at most 4.70 throughout. Further, the pKd with HLA-B*27:03 (setting [15]) is at most 4.70; with HLA-B*39:01 (setting [15]), at most 4.70; with HLA-A*02:12 [12], 8.26; with HLA-A*03:01 [13] it was at most 4.70; in the test with HLA-A*02:01 [4] (setting [15]), 8.85; in the test with HLA-A*26:01 [5] (setting [15]), at most 4.70.
FYWPVMNHK: the values for the pIC50 in the test with HLA-A*24:02, in the test with HLA-A*11:01 and in the test with HLA-A*03:01 [1] were 5.01, 5.34 and 5.33, respectively.

Broadly, the pIC50 is −log10 of the IC50, conventionally taken in molar units. A high value points to a low IC50. The pKd is −log10 of the Kd, conventionally taken in molar units. The low end stands for a high Kd, the high end for a low Kd.
